B1: AnkB_repeats (24 ANK repeats of human 220 kDa ankyrin-B, residues 28–873) [human] / Cav1.3 peptide (mouse Cav1.3 residues 2134–2166), FITC-labeled [modified: FITC label (position not stated); FITC label (position not stated)] [mouse] (parent complex)
chain 1: KSDSNASFLRAARAGNLDKVVEYLKGGIDINTCNQNGLNALHLAAKEGHVGLVQELLGRGSSVDSATKKGNTALHIASLAGQAEVVKVLVKEGANINAQSQNGFTPLYMAAQENHIDVVKYLLENGANQSTATEDGFTPLAVALQQGHNQAVAILLENDTKGKVRLPALHIAARKDDTKSAALLLQNDHNADVQSKMMVNRTTESGFTPLHIAAHYGNVNVATLLLNRGAAVDFTARNGITPLHVASKRGNTNMVKLLLDRGGQIDAKTRDGLTPLHCAARSGHDQVVELLLERGAPLLARTKNGLSPLHMAAQGDHVECVKHLLQHKAPVDDVTLDYLTALHVAAHCGHYRVTKLLLDKRANPNARALNGFTPLHIACKKNRIKVMELLVKYGASIQAITESGLTPIHVAAFMGHLNIVLLLLQNGASPDVTNIRGETALHMAARAGQVEVVRCLLRNGALVDARAREEQTPLHIASRLGKTEIVQLLLQHMAHPDAATTNGYTPLHISAREGQVDVASVLLEAGAAHSLATKKGFTPLHVAAKYGSLDVAKLLLQRRAAADSAGKNGLTPLHVAAHYDNQKVALLLLEKGASPHATAKNGYTPLHIAAKKNQMQIASTLLNYGAETNIVTKQGVTPLHLASQEGHTDMVTLLLDKGANIHMSTKSGLTSLHLAAQEDKVNVADILTKHGADQDAHTKLGYTPLIVACHYGNVKMVNFLLKQGANVNAKTKNGYTPLHQAAQQGHTHIINVLLQHGAKPNATTANGNTALAIAKRLGYISVVDTLKVVTEEVTTTTTTITEKHKLNVPETMTEVLDVSDEEGDDTMTGDGGEYLRPEDLKELGDD
chain 2: ELQDFGPGYSDEEPDPGREEEDLADEMICITTL

Variants of: B1
Test: fluorescence polarisation; parent: 3.3e+03 nM

Kd [µM] | Variant
8.2 | chain 1 I240Q, chain 1 L273Q
3.3 | chain 1 F104Q, chain 1 F137Q
4 | chain 1 L339Q, chain 1 F372Q, chain 1 L405Q

— article PMC4358367, “Structural basis of diverse membrane target recognitions by ankyrins” (eLife, 2014)
